In patent US20250011363A1, “OPTIMIZED SHORTENED PEPTIDE THAT BINDS TO ACETYLCHOLINE RECEPTOR, AND USE THEREOF” (SKINMED CO., LTD., priority 2021, published 2025):

How the values were obtained:
[1] = target: acetylcholine receptor; assay: SPR, peptide at 10 uM on immobilized AchR
[2] = target: acetylcholine receptor; assay: SPR, receptor immobilised on chip, peptide at 10 uM

Row | Binder | Binding affinity (RU) [1] [RU] | Binding affinity (RU) [2] [RU]
1 | RATMRR [6mer-2-1006] | 30 | 
2 | RCHPKK [6mer-2-987] |  | 22
3 | KCHFRR [6mer-2-991] |  | 30
4 | KISFKK [6mer-2-997] |  | 30
5 | RFKARR [6mer-2-1005] | 23 | 
6 | KESGKR [6mer-2-980] |  | 34
7 | RMHAKK [6mer-2-982] |  | 38
8 | RHDVKK [6mer-2-993] |  | 29
9 | KPEWKR [6mer-2-1003] | 42 | 
10 | KFWEKK [6mer-2-995] |  | 38
11 | REMKRK [6mer-2-977] |  | 30
12 | KMCEKK [6mer-2-988] |  | 41
13 | KDMWKK [6mer-2-984] |  | 43
14 | KPPDKR [6mer-2-1013] | 23 | 
15 | RDEMKR [6mer-2-1015] | 29 | 
16 | REMNKR [6mer-2-985] |  | 34
17 | RAEFRR [6mer-2-1011] | 22 | 
18 | KAHNKR [6mer-2-989] |  | 22
19 | RAWKKR [6mer-2-1008] | 38 | 
20 | RHDARK [6mer-2-996] |  | 40
21 | KASAKK [6mer-2-1012] | 30 | 
22 | RPTKKK [6mer-2-1018] | 24 | 

Row | Binder | Binding affinity (RU) [1] [RU] | Binding affinity (RU) [2] [RU]
23 | RTTGKK [6mer-2-976] |  | 26
24 | KCHDKK [6mer-2-1000] | 41 | 
25 | KEPHRR [6mer-2-978] |  | 28
26 | RMHFRR [6mer-2-992] |  | 33
27 | KNWARR [6mer-2-986] |  | 27
28 | RPPMRR [6mer-2-1014] | 34 | 
29 | RDTHKR [6mer-2-1004] | 38 | 
30 | KYCIKK [6mer-2-994] |  | 41
31 | RHTNKK [6mer-2-1007] | 42 | 
32 | RTWHRR [6mer-2-983] |  | 37
33 | RCNDKR [6mer-2-1002] | 42 | 
34 | RKKFKK [6mer-2-1001] | 37 | 
35 | RCEIRK [6mer-2-981] |  | 32
36 | KINPRK [6mer-2-1009] | 34 | 
37 | KKAFKK [6mer-2-979] |  | 22
38 | RAPVRR [6mer-2-1017] | 40 | 
39 | RKKMKR [6mer-2-990] |  | 41
40 | RNEEKR [6mer-2-1016] | 41 | 
41 | KEMWKK [6mer-2-998] |  | 43
42 | RATIKR [6mer-2-999] | 31 | 
43 | RANHKK [6mer-2-1010] | 36 | 

The next lines start with the values.

Row | Binding affinity (RU) [1] [RU] | Binding affinity (RU) [2] [RU] | Binder
44 | 21 |  | KHDKKR [6mer-2-1020]
45 | 33 |  | KENHRK [6mer-2-1026]
46 | 37 |  | RFHNKR [6mer-2-1024]
47 | 39 |  | RCSHRR [6mer-2-1025]
48 | 32 |  | KTPVKK [6mer-2-1027]
49 | 39 |  | RPPVKK [6mer-2-1035]
50 | 24 |  | RKHMRR [6mer-2-1051]
51 | 31 |  | KETVKR [6mer-2-1032]
52 | 41 |  | KPEHRR [6mer-2-1028]
53 | 39 |  | RNSEKR [6mer-2-1046]
54 | 36 |  | KYAWRK [6mer-2-1040]
55 | 23 |  | RNTWKK [6mer-2-1019]
56 | 41 |  | RHAHRR [6mer-2-1045]
57 | 34 |  | KEMGKK [6mer-2-1053]
58 | 26 |  | KAEFKR [6mer-2-1023]
59 | 40 |  | KEEFKK [6mer-2-1029]
60 | 22 |  | RIHNRK [6mer-2-1048]
61 | 40 |  | RDKGKK [6mer-2-1043]

Row | Binding affinity (RU) [1] [RU] | Binding affinity (RU) [2] [RU] | Binder
62 | 28 |  | RHDDKR [6mer-2-1047]
63 | 22 |  | RACDKR [6mer-2-1041]
64 | 33 |  | RAWERK [6mer-2-1031]
65 | 26 |  | KMSPRR [6mer-2-1049]
66 | 28 |  | KMDEKK [6mer-2-1033]
67 | 22 |  | KCNPRR [6mer-2-1022]
68 | 26 |  | RNHFRK [6mer-2-1039]
69 | 26 |  | KIHWKK [6mer-2-1037]
70 | 33 |  | KHWERK [6mer-2-1038]
71 | 36 |  | KKMFRK [6mer-2-1042]
72 | 41 |  | KHTDKK [6mer-2-1044]
73 | 26 |  | KPPPRK [6mer-2-1050]
74 | 39 |  | RYTPKR [6mer-2-1021]
75 | 23 |  | KAPARK [6mer-2-1052]
76 | 25 |  | KAKNKR [6mer-2-1036]
77 | 38 |  | KHSWRR [6mer-2-1034]
78 | 28 |  | RAPFKK [6mer-2-1030]
